Laboratory results as given in the Immune Epitope Database (IEDB).

Assays:
HLA-C*15:02 = assay: IEDB peptide-MHC binding, purified MHC/direct/fluorescence; filed as Kd, often an IC50 or EC50 that approximates it; ≥ and ≤ were set here for values at or beyond the usual limits of such assays; conditions: source organism: Burkholderia mallei NCTC 10229
HLA-A*02:12 = assay: IEDB peptide-MHC binding, purified MHC/competitive/fluorescence; filed as Kd, often an IC50 or EC50 that approximates it; ≥ and ≤ were set here for values at or beyond the usual limits of such assays
HLA-A*02:19 = assay: as above; conditions: source organism: Burkholderia mallei NCTC 10229
HLA-A*26:01 = assay: as above; conditions: source organism: Burkholderia mallei NCTC 10229
HLA-A*29:02 [1] = assay: as above; conditions: source organism: Burkholderia mallei NCTC 10229
HLA-A*80:01 = assay: as above; conditions: source organism: Burkholderia mallei NCTC 10229
HLA-B*39:01 = assay: as above; conditions: source organism: Burkholderia mallei NCTC 10229
HLA-B*14:02 = assay: IEDB peptide-MHC binding, purified MHC/direct/fluorescence; filed as Kd, often an IC50 or EC50 that approximates it; ≥ and ≤ were set here for values at or beyond the usual limits of such assays; conditions: source organism: Homo sapiens
HLA-B*15:02 = assay: IEDB peptide-MHC binding, purified MHC/competitive/fluorescence; filed as Kd, often an IC50 or EC50 that approximates it; ≥ and ≤ were set here for values at or beyond the usual limits of such assays; conditions: source organism: Homo sapiens
HLA-B*46:01 = assay: as above
HLA-A*02:01 [2] = assay: IEDB peptide-MHC binding, purified MHC/competitive/radioactivity; filed as Kd, often an IC50 or EC50 that approximates it; ≥ and ≤ were set here for values at or beyond the usual limits of such assays; conditions: source organism: Homo sapiens
HLA-A*02:07 = assay: as above; conditions: source organism: Homo sapiens
HLA-A*29:02 [3] = assay: as above; conditions: source organism: Homo sapiens
HLA-B*57:01 = assay: as above; conditions: source organism: Homo sapiens
HLA-B*58:01 [4] = assay: as above; conditions: source organism: Homo sapiens
HLA-C*05:01 = assay: IEDB peptide-MHC binding, purified MHC/direct/fluorescence; filed as Kd, often an IC50 or EC50 that approximates it; ≥ and ≤ were set here for values at or beyond the usual limits of such assays; conditions: source organism: Entamoeba histolytica HM-1:IMSS
HLA-A*32:15 = assay: IEDB peptide-MHC binding, purified MHC/competitive/fluorescence; filed as Kd, often an IC50 or EC50 that approximates it; ≥ and ≤ were set here for values at or beyond the usual limits of such assays; conditions: source organism: Entamoeba histolytica HM-1:IMSS
HLA-A*68:23 = assay: as above; conditions: source organism: Entamoeba histolytica HM-1:IMSS
HLA-B*15:42 = assay: as above; conditions: source organism: Entamoeba histolytica HM-1:IMSS
HLA-B*40:13 = assay: as above; conditions: source organism: Entamoeba histolytica HM-1:IMSS
HLA-B*45:06 = assay: as above; conditions: source organism: Entamoeba histolytica HM-1:IMSS
HLA-B*51:01 = assay: as above; conditions: source organism: Entamoeba histolytica HM-1:IMSS
HLA-B*83:01 = assay: as above; conditions: source organism: Entamoeba histolytica HM-1:IMSS
HLA-A*01:01 = assay: as above; conditions: source organism: Escherichia coli str. K-12 substr. DH10B
HLA-A*02:01 [5] = assay: as above; conditions: source organism: Escherichia coli str. K-12 substr. DH10B
HLA-A*02:03 = assay: as above; conditions: source organism: Escherichia coli str. K-12 substr. DH10B
HLA-A*03:01 = assay: as above; conditions: source organism: Escherichia coli str. K-12 substr. DH10B
HLA-A*11:01 = assay: as above; conditions: source organism: Escherichia coli str. K-12 substr. DH10B
HLA-A*26:02 = assay: as above; conditions: source organism: Escherichia coli str. K-12 substr. DH10B
HLA-A*30:01 = assay: as above; conditions: source organism: Escherichia coli str. K-12 substr. DH10B
HLA-A*31:01 = assay: as above; conditions: source organism: Escherichia coli str. K-12 substr. DH10B
HLA-B*07:02 = assay: as above; conditions: source organism: Escherichia coli str. K-12 substr. DH10B
HLA-B*08:02 = assay: as above; conditions: source organism: Escherichia coli str. K-12 substr. DH10B
HLA-B*08:03 = assay: as above; conditions: source organism: Escherichia coli str. K-12 substr. DH10B
HLA-B*15:01 = assay: as above; conditions: source organism: Escherichia coli str. K-12 substr. DH10B
HLA-B*18:01 = assay: as above; conditions: source organism: Escherichia coli str. K-12 substr. DH10B
HLA-B*27:05 = assay: as above; conditions: source organism: Escherichia coli str. K-12 substr. DH10B
HLA-B*35:01 = assay: as above; conditions: source organism: Escherichia coli str. K-12 substr. DH10B
HLA-B*40:01 = assay: as above; conditions: source organism: Escherichia coli str. K-12 substr. DH10B
HLA-B*48:01 = assay: as above; conditions: source organism: Escherichia coli str. K-12 substr. DH10B
HLA-B*58:01 [6] = assay: as above; conditions: source organism: Escherichia coli str. K-12 substr. DH10B
[7] = source organism: Escherichia coli str. K-12 substr. DH10B

With RTFGQPLFF the Kd (HLA-C*15:02) was 5 nM, the Kd (HLA-A*02:12; source organism: Burkholderia mallei NCTC 10229) was no less than 20000 nM and the Kd (HLA-A*02:19) was no less than 20000 nM. The Kd (HLA-A*26:01) was no less than 20000 nM, the Kd (HLA-A*29:02 [1]) was 0.2 nM and the Kd (HLA-A*80:01) was 413 nM. For the same sequence, the Kd (HLA-B*39:01) was no less than 20000 nM.
DELNHASI was tested, and the Kd (HLA-B*14:02) was 163 nM.
SIRDGVRAY gave a Kd (HLA-B*15:02) of 13.8 nM, a Kd (HLA-B*46:01; source organism: Homo sapiens) of 51.5 nM and a Kd (HLA-A*02:01 [2]) of no less than 78100 nM. The Kd (HLA-A*02:07) was no less than 60000 nM, the Kd (HLA-A*29:02 [3]) was 2870 nM and the Kd (HLA-B*57:01) was no less than 45600 nM. For the same sequence, the Kd (HLA-B*58:01 [4]) was no less than 48300 nM.
For MPYHGYHII, the Kd (HLA-C*05:01) was no less than 20000 nM, the Kd (HLA-A*32:15) was 134 nM and the Kd (HLA-A*68:23) was 95 nM. The Kd (HLA-B*15:42) was no less than 5000 nM, the Kd (HLA-B*40:13) was 44.1 nM and the Kd (HLA-B*45:06) was no less than 5000 nM. For the same sequence, the Kd (HLA-B*51:01) was 91 nM and the Kd (HLA-B*83:01) was 36.9 nM.
With QVIFKCVPK the Kd (HLA-A*01:01) was 1040 nM, the Kd (HLA-A*02:01 [5]) was 367 nM and the Kd (HLA-A*02:03) was no less than 20000 nM. It also gave a Kd (HLA-A*02:12; [7]) of 68.6 nM, a Kd (HLA-A*03:01) of 1070 nM and a Kd (HLA-A*11:01) of 190 nM. It also gave a Kd (HLA-A*26:02) of no less than 20000 nM, a Kd (HLA-A*30:01) of 75.3 nM and a Kd (HLA-A*31:01) of 4770 nM. It also gave a Kd (HLA-B*07:02) of no less than 20000 nM, a Kd (HLA-B*08:02) of no less than 20000 nM and a Kd (HLA-B*08:03) of no less than 20000 nM. For the same sequence, the Kd (HLA-B*15:01) was no less than 20000 nM, the Kd (HLA-B*18:01) was no less than 20000 nM and the Kd (HLA-B*27:05) was no less than 20000 nM. It also gave a Kd (HLA-B*35:01) of no less than 20000 nM, a Kd (HLA-B*40:01) of no less than 20000 nM and a Kd (HLA-B*46:01; [7]) of no less than 20000 nM. It also gave a Kd (HLA-B*48:01) of no less than 20000 nM and a Kd (HLA-B*58:01 [6]) of 2260 nM.
